Test results published in article PMC4323794.
Read-outs that look alike come from different tables or passages of the source.

Key:
[1] = biological target: GpIbα‐Fc fusion protein; assay: ELISA
[2] = biological target: GpIbα‐Fc fusion protein; assay: SPR
[3] = biological target: Dimeric full‐length VWF (ΔPro‐VWF) (human) (UniProt P04275); assay: ELISA
[4] = biological target: ΔD′D3‐VWF with Ala mutations replacing Thr/Ser (ΔD′D3OG‾‐VWF) (human) (UniProt P04275); assay: ELISA
[5] = biological target: ΔD′D3‐VWF lacking the NFP (ΔD′D3NFP‾‐VWF) (human) (UniProt P04275); assay: ELISA
[6] = biological target: ΔD′D3‐VWF lacking the NFP (ΔD′D3NFP‾‐VWF) (human) (UniProt P04275); assay: ELISA; remark: listed apart in the source

| Substance | Kd [1] | Kd [2] | further results |
| --- | --- | --- | --- |
| Dimeric full‐length VWF (ΔPro‐VWF) (from UniProt P04275 764-2813) (natural protein) | 102 nM |  |  |
| D′D3‐A1 (from UniProt P04275 764-1480) (domain or fragment) |  | 1700 nM |  |
| GpIbα‐Fc fusion protein |  |  | Kd [3]: 15 nM; Kd [4]: 5 nM; Kd [5]: 7 nM; Kd [6]: 7.5 nM |
| VWF‐A1 (monomeric A1 domain with the N‐terminal flanking peptide) (from UniProt P04275 1243-1480) (domain or fragment) |  | 1200 nM |  |
| ΔD′D3‐VWF lacking the NFP (ΔD′D3NFP‾‐VWF) (from UniProt P04275 1267-2813) (domain or fragment) | 0.7 nM |  |  |
| ΔD′D3‐VWF with Ala mutations replacing Thr/Ser (ΔD′D3OG‾‐VWF) (from UniProt P04275 1243-2813) (domain or fragment) | 2.4 nM |  |  |
